Substrate in the data set: CC(=O)N[C@H]1[C@H]([C@H](O)[C@H](O)CO)O[C@](OP(=O)(O)OC[C@H]2O[C@@H](n3ccc(N)nc3=O)[C@H](O)[C@@H]2O)(C(=O)O)C[C@@H]1O
In words: sialyltransferase kinetics, donor varied. It is filed as biochemical, Homo sapiens. Conditions: acceptor LacNAc-butyl (11), fixed concentration.

B1: human ST6Gal-I (Homo sapiens) (protein)
chain: MIHTNLKKKFSCCVLVFLLFAVICVWKEKKKGSYYDSFKLQTKEFQVLKSLGKLAMGSDSQSVSSSSTQDPHRGRQTLGSLRGLAKAKPEASFQVWNKDSSSKNLIPRLQKIWKNYLSMNKYKVSYKGPGPGIKFSAEALRCHLRDHVNVSMVEVTDFPFNTSEWEGYLPKESIRTKAGPWGRCAVVSSAGSLKSSQLGREIDDHDAVLRFNGAPTANFQQDVGTKTTIRLMNSQLVTTEKRFLKDSLYNEGILIVWDPSVYHSDIPKWYQNPDYNFFNNYKTYRKLHPNQPFYILKPQMPWELWDILQEISPEEIQPNPPSSGMLGIIIMMTLCDQVDIYEFLPSKRKTDVCYYYQKFFDSACTMGAYHPLLYEKNLVKHLNQGTDEDIYLLGKATLPGFRTIHC
On to B1, for which the Km was found to be 119 ± 16 µM, the kcat was found to be 0.183 ± 0.00667 s⁻¹ and the kcat/Km amounted to 1530 ± 417 M⁻¹ s⁻¹.

B2: human ST3Gal-IV (Homo sapiens) (protein)
chain: MVSKSRWKLLAMLALVLVVMVWYSISREDRYIELFYFPIPEKKEPCLQGEAESKASKLFGNYSRDQPIFLRLEDYFWVKTPSAYELPYGTKGSEDLLLRVLAITSSSIPKNIQSLRCRRCVVVGNGHRLRNSSLGDAINKYDVVIRLNNAPVAGYEGDVGSKTTMRLFYPESAHFDPKVENNPDTLLVLVAFKAMDFHWIETILSDKKRVRKGFWKQPPLIWDVNPKQIRILNPFFMEIAADKLLSLPMQQPRKIKQKPTTGLLAITLALHLCDLVHIAGFGYPDAYNKKQTIHYYEQITLKSMAGSGHNVSQEALAIKRMLEMGAIKNLTSF
B2: the Km came to 300 ± 66 µM, the kcat was determined as 0.0233 ± 0.00167 s⁻¹ and the kcat/Km came to 78.3 ± 25 M⁻¹ s⁻¹.

Values taken from paper PMC6450558.
